{"source": "patent EP1731161A1", "biological_target": "tumor necrosis factor alpha (TNFα) (rat) (UniProt P16599)", "sequence (P16599 80-235 limits assumed)": "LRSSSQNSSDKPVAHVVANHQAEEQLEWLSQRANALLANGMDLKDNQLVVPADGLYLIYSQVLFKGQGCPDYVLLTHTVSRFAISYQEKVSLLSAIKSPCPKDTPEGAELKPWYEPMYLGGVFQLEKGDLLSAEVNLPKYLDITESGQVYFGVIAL", "assay": "cell-based or functional assay", "data": [{"substance": "TNFRII:Fc receptor fragment (from UniProt P20333 23-257) (Fc fusion)", "values": [{"measurement": "SPH release from hypoxic (5 hrs) adult rat cardiomyocytes after pretreatment with TNFRII:Fc (fold reduction)", "value": 3}]}]}
